Test results as given in US20140220033A1, “Administration of an Anti-Activin-A Compound to a Subject” (Santa Maria Biotherapeutics, Inc., priority 2013, published 2014).

Legend:
[1] = tested on: osteopontin; experiment: Western blot of osteopontin in ovarian tumors of inh-KO mice; assay type: in vivo, mouse; conditions: FIG. 8D
Description: (§1) 12-week-old female and 8-week-old male inh-KO mice with fully established ovarian or testicular tumors received a single injection of PBS or sActRIIB (30 mg/kg, SC). As a control, age-matched wild-type littermates received a single injection of PBS. Ovarian and testicular organ weights were determined by necropsy 14 days after the injection.
(§2) Protein extracts were prepared from cell cultures or tissues in T-PER tissue protein extraction reagent (Pierce) containing a mixture of protease inhibitors (Roche). A pool of 50 μg total protein for each group containing equal amounts of protein extract isolated from individual animals was separated by NuPAGE 4-12% Bis-Tris gel (Invitrogen) and transferred to PVDF. The membranes were probed with primary antibodies against total Smad2, p-Smad2 or E-cadherin (1:1000; Cell Signaling), endoglin, osteopontin (1:500; R&D Systems), IGFBP-1, IGFBP-2 (1:500; Abcam) followed by HRP-conjugated secondary antibody (1:2000; Cell Signaling). The membranes were stripped and re-probed with antibody against α-tubulin (1:1000; Cell Signaling).

[2] = tested on: TOV-21G cells; experiment: In vitro proliferation assay of TOV-21G cells (IncuCyte); assay type: cell-based, human; conditions: increasing concentrations; FIG. 14
Description: In vitro growth rates of TOV-21G cancer cells were analyzed by using a real-time live cell imaging system (IncuCyte) following the manufacturer's recommended protocol.

[3] = tested on: DNA fragmentation (apoptosis) in TOV-21G tumors; experiment: TUNEL assay in TOV-21G xenograft tumor sections; assay type: in vivo, mouse; conditions: FIG. 15C
Description: (§3) 5×10^6 TOV-21G ovarian cancer cells were implanted subcutaneously into individual female athymic nu/nu mice (Harlan). Treatment was initiated at day 12 after tumor implantation, when the average tumor volume reached approximately 150 mm^3. The mice received PBS, sActRIIB (30 mg/kg, SC, 1×/week) or activin-A antibody (30 mg/kg, SC, 2×/week). In a separate chemotherapy combination experiment, the mice were treated with PBS, sActRIIB (10 mg/kg, SC, 1×/week), 5-FU (50 mg/kg, IP, 3 cycles, 4 daily injections per cycle) or sActRIIB and 5-FU combination at the same doses above.
Cell apoptosis in TOV-21G tumors was analyzed by measuring the amounts of fragmented DNA in the tumor sections using the DeadEnd Fluorometric TUNEL System following the manufacturer's recommended protocols (Promega, G3250). The fluorescein-12-dUTP-labeled DNA was visualized by Nikon fluorescence microscopy.

[4] = tested on: VEGF; experiment: VEGF release into culture medium (ELISA); assay type: cell-based, human; conditions: TOV21G, MRC-5, CCD-Lu and TPH-1 cells treated with activin-A, without or with sActRIIB; FIG. 17A
Description: The serum VEGF levels in inh-KO mice were measured by using immunoassay kit (R&D Systems), and the levels of human VEGF and Ang-1 in cell line culture medium were quantified using ELISA kits purchased from Invitrogen (VEGF) and R&D Systems (Ang-1), by following the manufacturers' recommended protocols.

[5] = tested on: Ang-1; experiment: Ang-1 immunostaining in gonadal tumor sections of inh-KO mice; assay type: in vivo, mouse; conditions: ovarian and testicular tumors of inh-KO mice; FIG. 8B
Description: as §1
(§4) Zinc-formalin fixed paraffin tumor tissue sections of 4 μm in thickness were prepared. The sections were subjected to antigen retrieval by microwave 3 min in Unmask solution (Vector H-3300) followed by incubation in 10 μg/ml Proteinase-K for 20 min and in 1% H2O2 in dH2O for 10 min at room temperature. The sections were further incubated in 0.1% Tween-20 in PBS for 3 min to permeabilize the cell membrane and in goat serum for 30 min to block non-specific binding. The sections were then incubated at room temperature with specific primary antibody for 3 hours followed by incubation in biotinylated or fluorescently labeled secondary antibody. Substrate developed in Vector SG kit (SK-4700) or DAB and nuclear-counterstained in Vector Fast Red (H-3403) or in hematoxylin. The immunostained tissue sections were analyzed and photographed using a Nikon Eclipse 90i microscope equipped with DS-Ril camera. […]

[6] = tested on: ovarian tumors in inh-KO mice; experiment: Light microscopy (H&E) of ovaries of inh-KO mice; assay type: in vivo, mouse; conditions: female inh-KO mice; FIG. 7A
Description: as §1
Testes and ovaries from inh-KO mice were fixed with Zinc-formalin. Tissue sections were subjected to H&E staining and then examined with a Nikon Eclipse 90i microscope.

[7] = tested on: VEGF; experiment: VEGF immunostaining in TOV-21G xenograft tumor sections; assay type: in vivo, mouse; conditions: treated vs untreated sections (strong immunostaining); FIG. 15A
Description: as §3
as §4, with “Substrate developed in Vector SG kit (SK-4700) or DAB and nuclear-counterstained in Vector Fast Red (H-3403) or in hematoxylin.” left out

[8] = tested on: Ang-1; experiment: Ang-1 immunostaining in TOV-21G xenograft tumor sections; assay type: in vivo, mouse; conditions: treated vs untreated sections (strong immunostaining); FIG. 15A
Description: as §3
as §4, with “Substrate developed in Vector SG kit (SK-4700) or DAB and nuclear-counterstained in Vector Fast Red (H-3403) or in hematoxylin.” left out

[9] = tested on: endoglin; experiment: Western blot of endoglin in ovarian tumors of inh-KO mice; assay type: in vivo, mouse; conditions: FIG. 8D
Description: as §1, §2

[10] = tested on: CD31; experiment: CD31 immunostaining in TOV-21G xenograft tumor sections; assay type: in vivo, mouse; conditions: FIG. 15B
Description: as §3
as §4, with “Substrate developed in Vector SG kit (SK-4700) or DAB and nuclear-counterstained in Vector Fast Red (H-3403) or in hematoxylin.” left out

[11] = tested on: Ang-2 mRNA; experiment: Northern blot of Ang-2 mRNA in gonadal tumors of inh-KO mice; assay type: in vivo, mouse; conditions: ovarian and testicular tumors of inh-KO mice; FIG. 8C
Description: as §1
Total RNA was isolated from individual tissue samples after homogenization in Trizol (Invitrogen). A pool of 10 μg RNA for each group containing equal amounts of total RNA isolated from individual animals was subjected to Northern blot analysis. The northern probes used for βA and Ang-2 were generated by using RT-PCR (Phusion, Biolabs). βA primer set: 5′-CCCTTGCTTTGGCTGAGAGGA-3′ and 5′-TC ACA GGT CGT CGT AGG TCG-3′; Ang-2 primer set: 5′-TGT GCC GGG GAG AAG AG and 5′-TACAGTAGTGGGTTGAGGTTC-3′. To normalize the expression, northern blot membranes were re-probed with β-actin.

[12] = tested on: VEGF; experiment: VEGF immunostaining in gonadal tumor sections of inh-KO mice; assay type: in vivo, mouse; conditions: ovarian and testicular tumors of inh-KO mice; FIG. 8B
Description: as §1, §4

[13] = tested on: ovarian tumors in inh-KO mice; experiment: Ovarian tumor mass in inh-KO mice (necropsy); assay type: in vivo, mouse; conditions: 12-week-old female inh-KO mice; single dose 30 mg/kg SC; necropsy 14 days after injection; FIG. 3A, 3B
Description: as §1

[14] = tested on: E-cadherin; experiment: E-cadherin in ovarian tumors of inh-KO mice (Western blot, immunostaining); assay type: in vivo, mouse
Description: as §1, §2
Zinc-formalin fixed paraffin tumor tissue sections of 4 μm in thickness were prepared. […] The immunostained tissue sections were analyzed and photographed using a Nikon Eclipse 90i microscope equipped with DS-Ril camera. […]

B1: sActRIIB: extracellular domain of human activin type-2B receptor fused to IgG2 Fc, expressed in CHO cells; sequence in the 26th table (protein)
chain: ETRWCIYYNANWELERTNQGLERCEGEQDKRLHCYASWRNSSGTIELVKKGCWLDDFNCYDRQECVATEENPQVYFCCCEGNFCNERFTHLPEAGGPEVTYEPPPTAPTGGGGSVECPPCPAPPVAGPSVFLFPPKPKDTLMISRTPEVTCVVVDVSHEDPEVQFNWYVDGVEVHNAKTKPREEQFNSTFRVVSVLTVVHQDWLNGKEYKCKVSNKGLPAPIEKTISKTKGQPREPQVYTLPPSREEMTKNQVSLTCLVKGFYPSDIAVEWESNGQPENNYKTTPPMLDSDGSFFLYSKLTVDKSRWQQGNVFSCSVMHEALHNHYTQKSLSLSPGK
modifications: left off: a dimerising Fc or GST
[1]
  osteopontin induction (Western blot): abolished completely
[2]
  TOV-21G cell proliferation in vitro: no direct effect
[3]
  DNA fragmentation (TUNEL) in TOV-21G tumors: profound increases
[4]
  release of VEGF into the culture medium: blocked completely
[5]
  Ang-1 immunoreactivity in tumor sections: completely abolished the VEGF and Ang-1 inductions
[6]
  ovarian morphology (light microscopy): the ovaries were normal in size and contained many recognizable follicles, minimal tumor cell invasion and few hemorrhagic lesions
[7]
  VEGF immunostaining in TOV-21G tumor sections: virtually none
[8]
  Ang-1 immunostaining in TOV-21G tumor sections: virtually none
[9]
  endoglin induction (Western blot): abolished completely
[10]
  CD31 immunostaining (newly formed microvessels) in TOV-21G tumor sections: lack of such new microvessels
[11]
  Ang-2 mRNA expression (Northern blot): inhibited its overexpression
[12]
  VEGF immunoreactivity in tumor sections: completely abolished the VEGF and Ang-1 inductions
[13]
  ovarian tumor mass: regressed rapidly to the sizes seen in the WT control mice
[14]; FIG. 6B
  E-cadherin immunoreactivity in ovarian sections: reappearance of distinctive E-cadherin immunoreactivity
[14]; single injection, FIG. 6A
  E-cadherin protein in ovarian tumors (Western blot): dramatically restored the lost E-cadherin
